According to the supplement of paper PMC9170038:

Tested on: K4 kissing-loop RNA reporter
Experiment: apparent KD of K4 kissing-loop reporter; higher = weaker reporter binding
Details: Eterna round: R107
Procedure: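 RNA-MaP round R107: designed RNA switches with theophylline, tryptophan, arginine or FMN aptamers are transcribed on-chip within common flanks. They are titrated with a labelled K4 kissing-loop RNA reporter in RNA-MaP buffer (100 mM Tris pH 7.5, 80 mM KCl, 4 mM MgCl2), without ligand or with the indicated ligand. Median apparent KD per design.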

[1] = input ligand: theophylline 20 uM
[2] = input ligand: tryptophan 2.4 mM
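Also: bound reporter read as fluorescence of individual clusters on recovered sequencing chips by microscopy, with normalized cluster intensities fitted with a binding model.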

Sequence | apparent KD of K4 kissing-loop reporter (input ligand: FMN 200 uM) [nM] | apparent KD of K4 kissing-loop reporter (input ligand: arginine 13.2 mM) [nM] | apparent KD of K4 kissing-loop reporter (input ligand: none) [nM] | apparent KD of K4 kissing-loop reporter [1] [nM] | apparent KD of K4 kissing-loop reporter [2] [nM]
GGUUCCUCAGUGAUGUUGAGGUGACCUCGGCAGGAUAUAGGCAUUACUAGAAGGGCCAAAAGAACCCUGUCCAGCGACACAGGGA [Zalatiat] | 159 | 238 | 305 | 250 | 232
GGUUUAUAGGAGGAUACCAGUACAAAUAAAGUACAUUAAUAGUAGAGUGAUGUUCUAAAGUACCCUUGGCAGCUUAGAUUAAGUU [ExTheophylB.G] | 92.6 | 181 | 111 | 188 | 76.4
GUAAGAUGAGGAGGAGGAUGAAUUACUGAAGGAGCGCAUAUAAAUGCAGGUAGGUCGCGGUAAAGAAGUAUAGUGAUGUUAUAUA [#20 K4 Arginine A Same State] | 452 | 508 | 464 | 459 | 474
GUAGCACUUGGUAGUGAUGUUACCAAGGACAAGGAUAUCAUCUCAAUGAGAAGGUGUCCUUGGUAACAGCUACGGGAAUAUCCCA [Omei KL FMN A Exc D v2] | 275 | 194 | 226 | 242 | 246
GUAGGAUGAGGAGGAGGAAGAAAUACUGAAGGAGCGCAAAGAAAUGCAGGUAGGUCGCGGUAAAGAAGUAUAGUGAUGUUAUAUA [SSArgA.C] | 452 | 450 | 406 | 411 | 373
GUAGGAUGAGGAGGAGGAUGAAUUACUGAAGGAGCGCAUAGAAAUGCAGGUAGGUCGCGGUAAAGAAGUAUAGUGAUGUUAUAUA [SSArgA.F] | 421 | 420 | 448 | 483 | 292
GUAUCAGUGAUGUUGAUAGGCGAGCGGGAUACCAGCCAAGACUCAGGCCCUUGGCAGCCCACAUAUCCCACGUAGAUAGUAGCUC [Same State - Theophylline A (Freestyle 16)] | 137 | 105 | 128 | 139 | 123
GUAUCGCUAGGAGGAUAUUUCAAUCCGCCUAUAAUAGGUGGUACGGAGUGAUGUUCCGAUUUACGGAAAGAAGGCCUAGUGAUAC [FMN B 16] | 142 | 265 | 297 | 283 | 278
GUAUCGCUAGGAGGAUAUUUCAAUUCGCCUAUAAAAGGUGAUACGGAGUGAUGUUCCGAUUUACGGAAAGAAGGCCUAGUGAUAC [FMN B 9] | 137 | 259 | 282 | 262 | 273
GUAUCGCUAGGAGGAUAUUUCAAUUCGCCUAUAAUAGGUGAUACGGAGUGAUGUUCCGAUUUACGGAAAGAAGGCCUAGUGAUAC [FMN B 10] | 144 | 229 | 244 | 239 | 237
GUAUCGCUAGGAGGAUAUUUCGUUUUUCAUAGCAAUGGCUAUGCGGAGUGAUGUUCCGAUUUACCGGAAGAAGGCCUAGUGAUAC [FMN B 26] | 109 | 172 | 202 | 205 | 165
GUCAGACCGGGACUCCAGUGAUGUUGGAGGCAGGAUAUCCAGUCGAGGAGAAGGGCCAGGGAUAUCGAGCUGCUCGGUUUGUAGU [Xexezaes] | 72.4 | 108 | 77.3 | 102 | 67.4
GUCCACACUGCAGGAUAUGGAGGAAUAGCGAGGGAGUGUGGAAGCACACCUCUGGCAGUGAUGUUGCCAGAAGGGCGGUGCGGCG [Cemaorar] | 111 | 75.5 | 76.4 | 69 | 93.4
GUCCACACUGCAGGAUAUGGAGGUAUAGCGAGGGAGUUUGGAAGCACACCUCUGGCAGUGAUGUUGCCAGAAGGGCGGUGCGGCG [Rauserin] | 82.4 | 89.5 | 99.2 | 64.3 | 83.9
GUCCCAGUGAUGUUGGUAGGCGAGCGGGAUACCAGCGAAGACUCACGCCCUUGGCAGCCCACAUAUCCCACGUAGGGAUUAGCUC [Same State - Theophylline A (Freestyle 20)] | 336 | 359 | 378 | 357 | 351
GUCUAGCUAGCAGGAUAUAGCUGGUAGUGAUGUUACCACUAGAACUCUGCGGAAACGCAGAGUAUCCUAGAAGGGCUAGCUAGAC | 95 | 65 | 75.4 | 63.9 | 66.8
GUCUCAAAAGAGGCAAGCACUCACGAGGACAAGGAUAUCAUAUCAAUGAGAAGGUGUCCUCGUCCUCAGUGAUGUUGAGGAGUGC [Omei KL FMN A SS E v4] | 410 | 200 | 247 | 233 | 257

Sequence | apparent KD of K4 kissing-loop reporter (input ligand: FMN 200 uM) [nM] | apparent KD of K4 kissing-loop reporter (input ligand: arginine 13.2 mM) [nM] | apparent KD of K4 kissing-loop reporter (input ligand: none) [nM] | apparent KD of K4 kissing-loop reporter [1] [nM] | apparent KD of K4 kissing-loop reporter [2] [nM]
GUCUCCGUCGAUGAUACCAGUCGAUGUACGUCAGGUACCCUUUGAGUGAUGUUCAGAUUAGACCCUUGGCAGCAUAUCGAGGCUC [theeternabot_exclusion_KL_Theo_B_24] | 370 | 452 | 514 | 444 | 303
GUCUGAUGCGUUGAUACCAGUCCUUCAGUGAUGUUGCAAGCGCGGCCUAUCAAGCAAUCCGACCCUUGGCAGCAAUAGGUCCGAA [theeternabot_exclusion_KL_Theo_B_9] | 892 | 568 | 850 | 872 | 661
GUGAAGGAGCAGCAGUGAUGUUGCUGAGACUAGGAUAUCAGGAAACUGAGAAGGAGUCAACUCCUUCACCUAGACUGCAACAUAA [KL-SSFMN-A13] | 173 | 167 | 180 | 249 | 152
GUGACACGUGAUGAUACCAGUCCACGGAAGUUCCUUAGUGAUGUUAACCUUGCUUUUUCUGACCCUUGGCAGCAUUAGUUGAGAA [theeternabot_sameState_KL_Theo_B_42] | 332 | 166 | 204 | 304 | 237
GUGACCUACUCAGGAUAUCCGCAGUGAUGUUGCGGUUGGCCUGAGCGACAUGAAAAUCUUACUACAGGAGAAGGGAGAGGGUUAC [Leanteti] | 113 | 92.7 | 109 | 89.2 | 91.5
GUGACGCGGACGGCCGCCACUCCGGUGACCGCUCCGUGCCGCCCUGCGCGAGUGAUGUUCGCCAGGAGGACCGGGUCCGACUUUA [Soesente] | 107 | 101 | 106 | 89.4 | 96.3
GUGCAAAGCACCGGCACGAGCAGCCUAAAGGAGGAUAUGACGAAAGUCAGAAGGUCUAGUGAUGUUAGGCCUUGCUUGAGUCGAA [Omei KL FMN A Exc B v3] | 288 | 278 | 402 | 405 | 327
GUGCAGUGAUGUUGCACGAGGAAAGACGAUACCAGCCGCAAAUGUGGCCCUUGGCAGCGUGGGCUAGCACAAAAUAUGCUAGUCU [Ricegeusat] | 131 | 113 | 119 | 98.9 | 108
GUGCAGUGAUGUUGCACGAGGAAAGACGAUACCAGCCGUAAAUAAGGCCCUUGGCAGCGUAGGCUAGCAUAAAGUACGCUAGUCC [Enarines] | 110 | 105 | 109 | 101 | 88.4
GUGCAGUGAUGUUGCACGAGGAAAGACGAUACCAGCCGUAAAUAAGGCCCUUGGCAGCGUAGGCUAGCAUAAAGUAUGCCAGUCU [Geleerra] | 117 | 112 | 121 | 113 | 96.5
GUGCAGUGAUGUUGCACGAGGAAAGACGAUACCAGCCGUAAAUAAGGCCCUUGGCAGCGUAGGCUAGCAUAAGGUAUGCUAGUCC [Atesermace] | 117 | 109 | 108 | 95.5 | 100
GUGCGGCUAGUGAUGUUGGUUGUGUGGGAAGGAGCGCAGAUACAUGCAGGUAGGUCGCCCACACCUCUGAAAGGAGGCUAAUUCA [KL-SSArg-A15] | 418 | 330 | 411 | 325 | 350
GUGCGGUGGAGGCUACCGCUACUCUGAGAAGGAGCGCAGAAGACUGCAGGUAGGUCGCUUAGAGCUUGCAGUGAUGUUGCAAGUU [KL-SSArg-A18] | 134 | 135 | 183 | 156 | 176
GUGGGCUCGGGAGGAUAUGAGUCUAGUGAUGUUAGGCGGUCCAUGCGCGUGGCGCGUUAUGCCCUUUUAGAAGGCCCGAGCCCUC [#2 Exclusion - FMN B Attempt #24 (HarryS)] | 99.8 | 68.8 | 90.1 | 86.4 | 85.3
GUGUAGAAGUGAGGAUAUCGAUUUAAGAAUAAGCAGUGAUGUUGCAAGCAGGAGGAAUAAGAUUAACGAGAAGGCGUGGAUAUAG [FMN B Exclusion; Euphoria Solution] | 104 | 110 | 125 | 141 | 99.1
GUGUGACUAGUGAUGUUGGUUGCGUGGGAAGGAGCGCAGUAAAAUGCAGGUAGGUCGCCCGUAUCUCUGAUAAAAGAUUAAUUCA [KL-SSArg-A10] | 181 | 128 | 158 | 137 | 153
